Source: US20040053872, “New sequences” (published 2004)

Tests used:
[1] = molecular target: T1, HIV-1 RT reference (HIV-1 subtype B (clone BH10), UniProt P03366;P03366 P03366:600-1159,P03366:600-1039); experiment: inhibition; second strand DNA synthesis, 33 C
[2] = molecular target: T1, HIV-1 RT reference; experiment: inhibition; RNA-dependent DNA polymerisation, preincubated 30 min, 33 C; details: two stem-loops (D and anticodon)
[3] = molecular target: T1, HIV-1 RT reference; experiment: competition; BIC50, RT binding to template/primer; 33 C
[4] = molecular target: T1, HIV-1 RT reference; experiment: competition; BIC50, RT binding to primer; 33 C
[5] = molecular target: T1, HIV-1 RT reference; experiment: inhibition; RNA-dependent DNA polymerisation, 33 C; details: hairpin
[6] = two stem-loops (D and anticodon)

Binder | IC50 [1, 6] [nM] | IC50 [2] [nM] | IC50 [3, 6] [nM] | IC50 [4, 6] [nM] | IC50 ([1]; hairpin) [nM] | IC50 [5] [nM] | IC50 ([3]; hairpin) [nM] | IC50 ([4]; hairpin) [nM]
GCUCAGUCGGUAGAGCAUCAGACUUUUAAUCUGAG (ssRNA) [compound 199] | 40 | 6.6 | 7 | 2 | – | – | – | –
CAGACUUUUAAUCUG (ssRNA, PS all linkages) [compound 198 (15-mer anticodon stem-loop)] | – | – | – | – | 550 | 470 | 900 | 100
